Test in all cases: ITC
In general terms: In ITC the heat of successive injections is recorded.

Data set [1] concerns the target Jun bZIP R272A;Fos bZIP R155A (human;human, UniProt P05412;P01100 252-315;137-200, R272A|R155A).
The target of data set [2] is Jun bZIP R272A;Fos bZIP R143A (human;human, UniProt P05412;P01100 252-315;137-200, R272A|R143A).
Data set [3] deals with Jun bZIP R263A;Fos bZIP R146A (human;human, UniProt P05412;P01100 252-315;137-200, R263A|R146A).
Data set [4] addresses Jun bZIP K268A;Fos bZIP R146A (human;human, UniProt P05412;P01100 252-315;137-200, K268A|R146A).
Data set [5] has as its target Jun bZIP R259A;Fos bZIP R158A (human;human, UniProt P05412;P01100 252-315;137-200, R259A|R158A).
For data set [6], the target named is Jun bZIP K268A;Fos bZIP K153A (human;human, UniProt P05412;P01100 252-315;137-200, K268A|K153A).
Data set [7] addresses Jun bZIP R259A;Fos bZIP R144A (human;human, UniProt P05412;P01100 252-315;137-200, R259A|R144A).
The target of data set [8] is Jun bZIP R270A;Fos bZIP R158A (human;human, UniProt P05412;P01100 252-315;137-200, R270A|R158A).
For data set [9], the target named is Jun bZIP K268A;Fos bZIP K148A (human;human, UniProt P05412;P01100 252-315;137-200, K268A|K148A).
In data set [10] the target is Jun bZIP R261A;Fos bZIP R158A (human;human, UniProt P05412;P01100 252-315;137-200, R261A|R158A).
Data set [11] deals with Jun bZIP K273A;Fos bZIP R155A (human;human, UniProt P05412;P01100 252-315;137-200, K273A|R155A).
Data set [12] addresses Jun bZIP K258A;Fos bZIP R158A (human;human, UniProt P05412;P01100 252-315;137-200, K258A|R158A).
For data set [13], the target named is Jun bZIP K268A;Fos bZIP R158A (human;human, UniProt P05412;P01100 252-315;137-200, K268A|R158A).
For data set [14], the target named is Jun bZIP R270A;Fos bZIP R157A (human;human, UniProt P05412;P01100 252-315;137-200, R270A|R157A).
For data set [15], the target named is Jun bZIP K273A;Fos bZIP K153A (human;human, UniProt P05412;P01100 252-315;137-200, K273A|K153A).
The target in the next data set is Jun-Jun bZIP R259A (human, UniProt P05412 252-315, R259A).
Chain of Jun-Jun bZIP R259A (P05412 252-315 R259A): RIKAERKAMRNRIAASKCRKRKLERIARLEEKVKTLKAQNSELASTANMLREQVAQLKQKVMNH

Chain of Jun bZIP R263A;Fos bZIP R146A (P05412 252-315 R263A, chain 1 of 2): as the sequence (P05412 252-315 R259A) above, with A8R, R12A counted along it
Chain of Jun bZIP R263A;Fos bZIP R146A (P01100 137-200 R146A, chain 2 of 2): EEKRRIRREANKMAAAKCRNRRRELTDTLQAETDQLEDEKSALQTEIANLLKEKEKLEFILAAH
Chain of Jun bZIP R261A;Fos bZIP R158A (P05412 252-315 R261A, chain 1 of 2): as the sequence (P05412 252-315 R259A) above, with A8R, R10A counted along it
Chain of Jun bZIP R261A;Fos bZIP R158A (P01100 137-200 R158A, chain 2 of 2): as the sequence (P01100 137-200 R146A, chain 2 of 2) above, with A10R, R22A counted along it
Chain of Jun bZIP R270A;Fos bZIP R157A (P05412 252-315 R270A, chain 1 of 2): as the sequence (P05412 252-315 R259A) above, with A8R, R19A counted along it
Chain of Jun bZIP R270A;Fos bZIP R157A (P01100 137-200 R157A, chain 2 of 2): as the sequence (P01100 137-200 R146A, chain 2 of 2) above, with A10R, R21A counted along it
Chain of Jun bZIP R270A;Fos bZIP R158A (P05412 252-315 R270A, chain 1 of 2): as the sequence (P05412 252-315 R259A) above, with A8R, R19A counted along it
Chain of Jun bZIP R270A;Fos bZIP R158A (P01100 137-200 R158A, chain 2 of 2): as the sequence (P01100 137-200 R146A, chain 2 of 2) above, with A10R, R22A counted along it
Chain of Jun bZIP K273A;Fos bZIP R155A (P05412 252-315 K273A, chain 1 of 2): as the sequence (P05412 252-315 R259A) above, with A8R, K22A counted along it
Chain of Jun bZIP K273A;Fos bZIP R155A (P01100 137-200 R155A, chain 2 of 2): as the sequence (P01100 137-200 R146A, chain 2 of 2) above, with A10R, R19A counted along it
Chain of Jun bZIP K273A;Fos bZIP K153A (P05412 252-315 K273A, chain 1 of 2): as the sequence (P05412 252-315 R259A) above, with A8R, K22A counted along it
Chain of Jun bZIP K273A;Fos bZIP K153A (P01100 137-200 K153A, chain 2 of 2): as the sequence (P01100 137-200 R146A, chain 2 of 2) above, with A10R, K17A counted along it
Chain of Jun bZIP K268A;Fos bZIP R158A (P05412 252-315 K268A, chain 1 of 2): as the sequence (P05412 252-315 R259A) above, with A8R, K17A counted along it
Chain of Jun bZIP K268A;Fos bZIP R158A (P01100 137-200 R158A, chain 2 of 2): as the sequence (P01100 137-200 R146A, chain 2 of 2) above, with A10R, R22A counted along it
Chain of Jun bZIP K268A;Fos bZIP K148A (P05412 252-315 K268A, chain 1 of 2): as the sequence (P05412 252-315 R259A) above, with A8R, K17A counted along it
Chain of Jun bZIP K268A;Fos bZIP K148A (P01100 137-200 K148A, chain 2 of 2): as the sequence (P01100 137-200 R146A, chain 2 of 2) above, with A10R, K12A counted along it
Chain of Jun bZIP K268A;Fos bZIP R146A (P05412 252-315 K268A, chain 1 of 2): as the sequence (P05412 252-315 R259A) above, with A8R, K17A counted along it
Chain of Jun bZIP K268A;Fos bZIP R146A (P01100 137-200 R146A, chain 2 of 2): as the sequence (P01100 137-200 R146A, chain 2 of 2) above
Chain of Jun bZIP K268A;Fos bZIP K153A (P05412 252-315 K268A, chain 1 of 2): as the sequence (P05412 252-315 R259A) above, with A8R, K17A counted along it
Chain of Jun bZIP K268A;Fos bZIP K153A (P01100 137-200 K153A, chain 2 of 2): as the sequence (P01100 137-200 R146A, chain 2 of 2) above, with A10R, K17A counted along it
Chain of Jun bZIP K258A;Fos bZIP R158A (P05412 252-315 K258A, chain 1 of 2): as the sequence (P05412 252-315 R259A) above, with K7A, A8R counted along it
Chain of Jun bZIP K258A;Fos bZIP R158A (P01100 137-200 R158A, chain 2 of 2): as the sequence (P01100 137-200 R146A, chain 2 of 2) above, with A10R, R22A counted along it
Chain of Jun bZIP R272A;Fos bZIP R155A (P05412 252-315 R272A, chain 1 of 2): as the sequence (P05412 252-315 R259A) above, with A8R, R21A counted along it
Chain of Jun bZIP R272A;Fos bZIP R155A (P01100 137-200 R155A, chain 2 of 2): as the sequence (P01100 137-200 R146A, chain 2 of 2) above, with A10R, R19A counted along it
Chain of Jun bZIP R272A;Fos bZIP R143A (P05412 252-315 R272A, chain 1 of 2): as the sequence (P05412 252-315 R259A) above, with A8R, R21A counted along it
Chain of Jun bZIP R272A;Fos bZIP R143A (P01100 137-200 R143A, chain 2 of 2): as the sequence (P01100 137-200 R146A, chain 2 of 2) above, with R7A, A10R counted along it
Chain of Jun bZIP R259A;Fos bZIP R158A (P05412 252-315 R259A, chain 1 of 2): as the sequence (P05412 252-315 R259A) above
Chain of Jun bZIP R259A;Fos bZIP R158A (P01100 137-200 R158A, chain 2 of 2): as the sequence (P01100 137-200 R146A, chain 2 of 2) above, with A10R, R22A counted along it
Chain of Jun bZIP R259A;Fos bZIP R144A (P05412 252-315 R259A, chain 1 of 2): as the sequence (P05412 252-315 R259A) above
Chain of Jun bZIP R259A;Fos bZIP R144A (P01100 137-200 R144A, chain 2 of 2): as the sequence (P01100 137-200 R146A, chain 2 of 2) above, with R8A, A10R counted along it

B1: TRE duplex 15-mer (dsDNA)
DNA 1: CGCGTGACTCACCCC
DNA 2: GGGGTGAGTCACGCG
Regarding B1, the Kd (commonly the free concentration of one partner at which half of the binding sites on the other are occupied at equilibrium, for simple one-to-one binding) in data set [1] is 2670 ± 130 nM; in [2] it was 910 ± 70 nM; in data set [3], 1040 ± 40 nM; in [4], 420 ± 20 nM; in [5], 2160 ± 130 nM; in [6] it was 470 ± 60 nM. The Kd is 15800 ± 620 nM in data set [7]; 1540 ± 50 nM in [8]; 460 ± 20 nM in data set [9]; 760 ± 20 nM in [10]; 6790 ± 420 nM in [11]; 960 ± 60 nM in [12]. In addition, the dissociation constant (Kd) turned out to be 430 ± 20 nM in [13], 3560 ± 130 nM in [14], 840 ± 50 nM in data set [15] and 5250 ± 60 nM with Jun-Jun bZIP R259A.

The values above are taken from PMC3154423.
